Experimental data reported in patent US20240327535A1 (EISAI R AND D MANAGEMENT, published 2024).

T1: extracellular domain of human BCMA (human, UniProt Q02223 1-54)
T1 construct: amine-linked to Octet AR2G tips; also called hsBCMA; BCMA (human)
T1 sequence: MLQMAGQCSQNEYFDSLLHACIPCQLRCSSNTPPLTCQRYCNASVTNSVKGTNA

B1: AB200-R1a-Fab_VH40 (Fab, V domains shown)
VH: QVQLVQSGAEVKKPGSSVKVSCKASGGTFSNFWMHWVRQAPGQGLEWMGATYRGHSDTYYNHKFKGRVTITADKSTSTAYMELSSLRSEDTAVYYCARGAIYHGYDVLENWGQGTLVTVSS
VL: DIQMTQSPSSLSASVGDRVTITCSATQDISNYLNWYQQKPGKAPKLLIYFTSNLQSGVPSRFSGSGSGTDFTLTISSLQPEDFATYYCQQYRKLPWTFGQGTKLEIKR
B2: AB200-R1a-Fab_VH57 (Fab, V domains shown)
VH: QVQLVQSGAEVKKPGSSVKVSCKASGGTYSNYYMHWVRQAPGQGLEWMGATYRGHSETYYNQKFKGRVTITADKSTSTAYMELSSLRSEDTAVYYCARGAIYHGYDVLDNWGQGTLVTVSS
VL: DIQMTQSPSSLSASVGDRVTITCSATQDISNYLNWYQQKPGKAPKLLIYFTSNLQSGVPSRFSGSGSGTDFTLTISSLQPEDFATYYCQQYRKLPWTFGQGTKLEIKR
B3: AB200-R1a-Fab_VH45 (Fab, V domains shown)
VH: QVQLVQSGAEVKKPGSSVKVSCKASGGTFSNYWMHWVRQAPGQGLEWMGATYRGHSDTYYNNKFKGRVTITADKSTSTAYMELSSLRSEDTAVYYCARGAIYHGYDVLEDWGQGTLVTVSS
VL: DIQMTQSPSSLSASVGDRVTITCSATQDISNYLNWYQQKPGKAPKLLIYFTSNLQSGVPSRFSGSGSGTDFTLTISSLQPEDFATYYCQQYRKLPWTFGQGTKLEIKR
B4: AB200-R1a-Fab_VH59 (Fab, V domains shown)
VH: QVQLVQSGAEVKKPGSSVKVSCKATGGTFSNYAMHWVRQAPGQGLEWMGASYRGHSDTYYNQKFKGRVTITADKSTSTAYMELSSLRSEDTAVYYCARGAIYHGYDVLDNWGQGTLVTVSS
VL: DIQMTQSPSSLSASVGDRVTITCSATQDISNYLNWYQQKPGKAPKLLIYFTSNLQSGVPSRFSGSGSGTDFTLTISSLQPEDFATYYCQQYRKLPWTFGQGTKLEIKR
B5: AB200-R1a-Fab_VH44 (Fab, V domains shown)
VH: QVQLVQSGAEVKKPGSSVKVSCKASGGTFSNYWMHWVRQAPGQGLEWMGGTYRGHSDTYYNQRFKGRVTITADKSTSTAYMELSSLRSEDTAVYYCARGAIYHGYDILDNWGQGTLVTVSS
VL: DIQMTQSPSSLSASVGDRVTITCSATQDISNYLNWYQQKPGKAPKLLIYFTSNLQSGVPSRFSGSGSGTDFTLTISSLQPEDFATYYCQQYRKLPWTFGQGTKLEIKR
B6: AB200-R1a-Fab_VH16 (Fab, V domains shown)
VH: QVQLVQSGAEVKKPGSSVKVSCKASGGTFSTYWMHWVRQAPGQGLEWMGATYRIHSDTYYNQKFKGRVTITADESTSTAYMELSSLRSEDTAVYYCARGAIYHGYDVLDNWGQGTLVTVSS
VL: DIQMTQSPSSLSASVGDRVTITCSATQDISNYLNWYQQKPGKAPKLLIYFTSNLQSGVPSRFSGSGSGTDFTLTISSLQPEDFATYYCQQYRKLPWTFGQGTKLEIKR
B7: AB200-R1a-Fab_VH52 (Fab, V domains shown)
VH: QVQLVQSGAEVKKPGSSVKVSCKASGGSFSDYWMHWVRQAPGQGLEWMGATYRGHSTTYYNQKFKGRVTITADKSTSTAYMELSSLRSEDTAVYYCARGAIYHGYDVLDNWGQGTLVTVSS
VL: DIQMTQSPSSLSASVGDRVTITCSATQDISNYLNWYQQKPGKAPKLLIYFTSNLQSGVPSRFSGSGSGTDFTLTISSLQPEDFATYYCQQYRKLPWTFGQGTKLEIKR
B8: AB200-R1a-Fab_VH46 (Fab, V domains shown)
VH: QVQLVQSGAEVKKPGSSVKVSCKASGGTFSNYWMHWVRQAPGQGLEWMGATYRGHSDTNYNQKYKGRVTITADKSTSTAYMELSSLRSEDTAVYYCARGAIYNGYDVLDNWGQGTLVTVSS
VL: DIQMTQSPSSLSASVGDRVTITCSATQDISNYLNWYQQKPGKAPKLLIYFTSNLQSGVPSRFSGSGSGTDFTLTISSLQPEDFATYYCQQYRKLPWTFGQGTKLEIKR
B9: AB200-R1a-Fab_VH42 (Fab, V domains shown)
VH: QVQLVQSGAEVKKPGSSVKVSCKASGGTFSNYWMHWVRQAPGQGLEWMGATYRGHSTTYYNQKFKGRVTITADKSTSTAYMELSSLRSEDTAVYYCARGSIYHGYDVMDNWGQGTLVTVSS
VL: DIQMTQSPSSLSASVGDRVTITCSATQDISNYLNWYQQKPGKAPKLLIYFTSNLQSGVPSRFSGSGSGTDFTLTISSLQPEDFATYYCQQYRKLPWTFGQGTKLEIKR
B10: AB200-R1a-Fab_VH8 (Fab, V domains shown)
VH: QVQLVQSGAEVKKPGSSVKVSCKASGGTFSNYWMHWVRQAPGQGLEWMGATYRSHSDTYYNQKFKGRVTITADESTSTAYMELSSLRSEDTAVYYCARGAIFHGYDVLDNWGQGTLVTVSS
VL: DIQMTQSPSSLSASVGDRVTITCSATQDISNYLNWYQQKPGKAPKLLIYFTSNLQSGVPSRFSGSGSGTDFTLTISSLQPEDFATYYCQQYRKLPWTFGQGTKLEIKR
B11: AB200-R1a-Fab_VH49 (Fab, V domains shown)
VH: QVQLVQSGAEVKKPGSSVKVSCKASGGTFSNYWIHWVRQAPGQGLEWMGASYRGHSDTYYNQKFKGRVTITADKSTSTAYMELSSLRSEDTAVYYCARGAIYHGYDVIDNWGQGTLVTVSS
VL: DIQMTQSPSSLSASVGDRVTITCSATQDISNYLNWYQQKPGKAPKLLIYFTSNLQSGVPSRFSGSGSGTDFTLTISSLQPEDFATYYCQQYRKLPWTFGQGTKLEIKR
B12: AB200-R1a-Fab_VH32 (Fab, V domains shown)
VH: QVQLVQSGAEVKKPGSSVKVSCKASGGTFSNYWMHWVRQAPGQGLEWMGATYRSHSDTYYNQKFKSRVTITADKSTSTAYMELSSLRSEDTAVYYCARGAIYHGYDVIDNWGQGTLVTVSS
VL: DIQMTQSPSSLSASVGDRVTITCSATQDISNYLNWYQQKPGKAPKLLIYFTSNLQSGVPSRFSGSGSGTDFTLTISSLQPEDFATYYCQQYRKLPWTFGQGTKLEIKR
B13: AB200-R1a-Fab_VH48 (Fab, V domains shown)
VH: QVQLVQSGAEVKKPGSSVKVSCKASGGTFSDYWMHWVRQAPGQGLEWMGATYRGHSDTYYNQRFKGRVTITADKSTSTAYMELSSLRSEDTAVYYCARGAIYHGYDVMDNWGQGTLVTVSS
VL: DIQMTQSPSSLSASVGDRVTITCSATQDISNYLNWYQQKPGKAPKLLIYFTSNLQSGVPSRFSGSGSGTDFTLTISSLQPEDFATYYCQQYRKLPWTFGQGTKLEIKR
B14: AB200-R1a-Fab_VH56 (Fab, V domains shown)
VH: QVQLVQSGAEVKKPGSSVKVSCKASGGTFSNYWIHWVRQAPGQGLEWMGATYRGHSDTYYNQKFRGRVTITADKSTSTAYMELSSLRSEDTAVYYCARGTIYHGYDVLDNWGQGTLVTVSS
VL: DIQMTQSPSSLSASVGDRVTITCSATQDISNYLNWYQQKPGKAPKLLIYFTSNLQSGVPSRFSGSGSGTDFTLTISSLQPEDFATYYCQQYRKLPWTFGQGTKLEIKR
B15: AB200-R1a-Fab_VH54 (Fab, V domains shown)
VH: QVQLVQSGAEVKKPGSSVKVSCKASGGTFSNYWMHWVRQAPGQGLEWMGATYRGHGDTFYNQKFKGRVTITADKSTSTAYMELSSLRSEDTAVYYCARGAIYHGYDVLNNWGQGTLVTVSS
VL: DIQMTQSPSSLSASVGDRVTITCSATQDISNYLNWYQQKPGKAPKLLIYFTSNLQSGVPSRFSGSGSGTDFTLTISSLQPEDFATYYCQQYRKLPWTFGQGTKLEIKR

Tests used:
[1] = biological target: T1, extracellular domain of human BCMA; experiment: Octet BLI; Fab 200 nM
[2] = biological target: T2, extracellular domain of rhesus monkey BCMA (rhesus monkey, UniProt F7FFA0 1-53); experiment: Octet BLI; Fab 200 nM
T2 construct: extracellular domain; also called RhBCMA
T2 sequence (F7FFA0 entry or part of it): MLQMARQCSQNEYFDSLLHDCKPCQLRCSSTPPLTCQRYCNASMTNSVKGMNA

Binder | Kd [1] | Kd [2]
B1 | 17.2 nM | 45.3 nM
B2 | 11.1 nM | 12 nM
B3 | 21.1 nM | 44.9 nM
B4 | 26.2 nM | 28.3 nM
B5 | 29 nM | 8.61 nM
B6 | 14.3 nM | 15.2 nM
B7 | 18 nM | 24.6 nM
B8 | 11.6 nM | 20 nM
B9 | 28.4 nM | 15.5 nM
B10 | 0.948 nM | 3.14 nM
B11 | 6.72 nM | 15.6 nM
B12 | 1.09 nM | 4.17 nM
B13 | 34.5 nM | 25 nM
B14 | 20.7 nM | 18 nM
B15 | 12 nM | 20.8 nM
